Results on 19 molecules are retold here after patent US20190367589A1 (CYTOMX THERAPEUTICS, published 2019).

Assay [1] concerns the target T1, human Jagged 1-Fc (extracellular domain of human Jagged 1 fused to the Fc portion of human IgG1); R&D Systems … (human, UniProt P78504 34-1067).
T1 construct: extracellular domain; Bought reagent; also called hJag1; h Jagged 1; not shown: Fc portion of human IgG1
Put plainly: BLI (Octet), Jagged-Fc on anti-human Fc tips, Fab in solution. The protocol: (§1) Off rates for individual Fabs were measured using an Octet (ForteBio, Menlo Park, Calif.). […] Following a wash, the loaded tips were exposed to 25 μM Fab until binding had reached equilibrium. The tips were then removed to a fresh solution with no Fab, and the rate of Fab dissociation was measured.
A general note: BLI is a label-free optical method that tracks binding on a fibre tip over time.

The target of assay [2] is T2, human Jagged 2-Fc (R&D Systems Cat #1726-JG-050) (human, UniProt Q9Y219 27-1080, limits assumed).
T2 construct: Bought reagent; also called hJag2; h Jagged 2; not shown: Fc part
The description is as above. The protocol: as §1

The target of assay [3] is T3, murine Jagged 2-Fc (R&D Systems) (murine, UniProt Q9QYE5 24-1082, limits assumed).
T3 construct: Bought reagent, cited as ibid. although no catalogue number is printed anywhere; also called m Jagged 2; not shown: Fc part
Described as above. On the procedure:
as §1

Assay [4] addresses T4, 4D11 Fab.
T4 construct: C-terminally His-tagged Fab from the periplasm of E. coli; also called anti-Jagged Fab 4D11; Fab 4D11
Kind of assay: FACS of bacteria displaying the peptide.

Assay [5] has as its target T5, anti-Jagged antibody 4D11 (fully human IgG).
T5 construct: Human IgG1 kappa from HEK-293 cells; Labeled with Alexa Fluor 680 in the tissue stainings, biotinylated in the peptide screens; also called anti-Jagged 4D11; 4D11 antibody
Kind of assay: FACS of bacteria displaying the peptide.

Assay [6] has as its target T4, 4D11 Fab. Kind of assay: FACS of bacteria displaying the peptide, labeled Fab 4D11, normalized to expression.
In assay [7] the target is T1, human Jagged 1-Fc (extracellular domain …). Put plainly: ELISA, ligand-Fc coated, anti-human IgG Fab-specific HRP. On the procedure:
Bound antibody was visualized with an anti-human IgG-HRP conjugate, Fab specific, (Sigma, St Louis, Mo.; Cat # A0293-1ML) and developed with the chromogenic substrate TMB.
(ELISA stands for enzyme-linked immunosorbent assay.)

Where a chain is given by its changes, count along the chain named. Where only a bound is given, the exact number is not on record here.

T3 sequence (Q9QYE5 24-1082 limits assumed): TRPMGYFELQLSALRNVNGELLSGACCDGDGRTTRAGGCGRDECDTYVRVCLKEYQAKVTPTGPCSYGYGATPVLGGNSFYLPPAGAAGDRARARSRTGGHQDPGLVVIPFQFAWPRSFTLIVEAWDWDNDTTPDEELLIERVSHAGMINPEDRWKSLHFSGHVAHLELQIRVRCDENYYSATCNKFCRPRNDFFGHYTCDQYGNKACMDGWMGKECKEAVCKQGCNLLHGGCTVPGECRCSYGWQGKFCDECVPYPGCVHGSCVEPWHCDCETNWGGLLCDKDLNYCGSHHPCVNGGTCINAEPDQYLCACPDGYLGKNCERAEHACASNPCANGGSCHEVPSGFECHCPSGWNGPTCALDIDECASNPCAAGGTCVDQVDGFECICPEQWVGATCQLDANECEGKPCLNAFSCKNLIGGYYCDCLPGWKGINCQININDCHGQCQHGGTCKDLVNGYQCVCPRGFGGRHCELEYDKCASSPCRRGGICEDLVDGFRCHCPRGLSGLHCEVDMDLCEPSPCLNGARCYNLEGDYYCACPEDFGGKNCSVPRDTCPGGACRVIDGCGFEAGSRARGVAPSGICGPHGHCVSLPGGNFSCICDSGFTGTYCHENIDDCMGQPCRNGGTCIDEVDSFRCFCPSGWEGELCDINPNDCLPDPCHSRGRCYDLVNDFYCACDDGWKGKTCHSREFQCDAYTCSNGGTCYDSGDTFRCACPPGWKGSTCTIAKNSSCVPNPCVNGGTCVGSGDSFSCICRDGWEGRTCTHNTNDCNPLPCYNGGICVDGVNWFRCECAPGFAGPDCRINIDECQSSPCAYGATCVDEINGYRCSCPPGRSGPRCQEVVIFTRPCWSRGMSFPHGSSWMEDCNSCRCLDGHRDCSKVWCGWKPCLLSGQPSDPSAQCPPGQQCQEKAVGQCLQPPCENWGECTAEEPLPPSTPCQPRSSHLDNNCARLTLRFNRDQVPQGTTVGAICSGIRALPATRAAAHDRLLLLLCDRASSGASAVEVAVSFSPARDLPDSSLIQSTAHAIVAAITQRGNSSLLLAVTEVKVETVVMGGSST
T5 sequence (VH, as listed by the source, chain 1 of 2): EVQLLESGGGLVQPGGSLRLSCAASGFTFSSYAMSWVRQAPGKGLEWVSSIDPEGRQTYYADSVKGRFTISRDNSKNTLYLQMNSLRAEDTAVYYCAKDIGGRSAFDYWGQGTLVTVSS
T5 sequence (VL, as listed by the source, chain 2 of 2): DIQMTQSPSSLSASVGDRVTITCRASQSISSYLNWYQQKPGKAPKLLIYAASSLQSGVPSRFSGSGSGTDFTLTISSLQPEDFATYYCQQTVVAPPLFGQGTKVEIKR
T2 sequence (Q9Y219 27-1080 limits assumed): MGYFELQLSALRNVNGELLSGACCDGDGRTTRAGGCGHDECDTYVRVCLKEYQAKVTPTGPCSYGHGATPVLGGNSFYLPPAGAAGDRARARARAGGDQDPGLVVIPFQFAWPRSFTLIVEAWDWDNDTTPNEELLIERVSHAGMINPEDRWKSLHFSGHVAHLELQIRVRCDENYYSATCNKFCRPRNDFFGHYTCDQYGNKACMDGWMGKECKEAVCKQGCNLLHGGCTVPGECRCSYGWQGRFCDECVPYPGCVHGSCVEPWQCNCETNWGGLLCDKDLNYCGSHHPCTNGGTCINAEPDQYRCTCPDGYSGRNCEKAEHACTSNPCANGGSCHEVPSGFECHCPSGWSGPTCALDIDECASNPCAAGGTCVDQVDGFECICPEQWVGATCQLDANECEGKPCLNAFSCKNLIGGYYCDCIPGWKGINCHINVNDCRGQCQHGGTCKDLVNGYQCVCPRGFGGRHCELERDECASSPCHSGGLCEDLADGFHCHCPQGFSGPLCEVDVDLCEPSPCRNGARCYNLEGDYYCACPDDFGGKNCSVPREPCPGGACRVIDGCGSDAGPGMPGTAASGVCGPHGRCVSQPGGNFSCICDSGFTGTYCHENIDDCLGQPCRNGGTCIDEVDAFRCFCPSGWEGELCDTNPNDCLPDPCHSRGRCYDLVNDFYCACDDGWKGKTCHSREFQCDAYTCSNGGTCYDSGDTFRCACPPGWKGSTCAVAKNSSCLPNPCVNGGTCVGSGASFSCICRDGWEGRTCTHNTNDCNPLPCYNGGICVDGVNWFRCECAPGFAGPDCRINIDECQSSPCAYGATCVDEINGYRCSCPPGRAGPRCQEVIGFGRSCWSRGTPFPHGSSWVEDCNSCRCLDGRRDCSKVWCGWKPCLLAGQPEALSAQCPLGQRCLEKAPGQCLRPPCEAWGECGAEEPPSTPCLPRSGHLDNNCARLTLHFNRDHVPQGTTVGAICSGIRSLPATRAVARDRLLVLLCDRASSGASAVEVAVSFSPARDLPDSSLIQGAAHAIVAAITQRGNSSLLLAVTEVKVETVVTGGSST

B1: 4E11 Fab (Fab, V domains shown)
VH: EVQLLESGGGLVQPGGSLRLSCAASGFTFSSYAMSWVRQAPGKGLEWVSSIEPMGQLTEYADSVKGRFTISRDNSKNTLYLQMNSLRAEDTAVYYCAKDIGGRSAFDYWGQGTLVTVSS
VL: DIQMTQSPSSLSASVGDRVTITCRASQSISSYLNWYQQKPGKAPKLLIYAASSLQSGVPSRFSGSGSGTDFTLTISSLQPEDFATYYCQQALDAPLMFGQGTKVEIKR
notes: C-terminally His-tagged Fab from the periplasm of E. coli
In the case of B1, the koff (in general, the first-order rate constant of dissociation) in assay [1] came to 0.0014 s⁻¹; in assay [2] it was 0.00057 s⁻¹; in assay [3] it was 2.5e-05 s⁻¹.

B2: 4E7 Fab (Fab, V domains shown)
VH: EVQLLESGGGLVQPGGSLRLSCAASGFTFSSYAMSWVRQAPGKGLEWVSSIEEMGWQTKYADSVKGRFTISRDNSKNTLYLQMNSLRAEDTAVYYCAKSAAAFDYWGQGTLVTVSS
VL: B1 VL with A91S, D93V, M97T
notes: as for B1
For the molecule B2, the koff in assay [1] is 0.00069 s⁻¹.

B3: 4B2 Fab (Fab, V domains shown)
VH: B1 VH with P53Q, Q56W, L57Q, E59Y
VL: B1 VL with A91T, L96P, M97Q
notes: as for B1
For B3, the results for the koff in assay [1], in assay [2] and in assay [3] were 0.0005 s⁻¹, 0.0065 s⁻¹ and 0.0011 s⁻¹, respectively.

B4: 6F8 Fab (Fab, V domains shown)
VH: B2 VH with E52D, K59Y
VL: B1 VL with D93V, M97T
notes: C-terminally His-tagged Fab from the periplasm of E. coli; As printed its variable domains equal those of 6B7
Take B4: in assay [1], the koff was 0.0012 s⁻¹.

B5: 6B7 Fab (Fab, V domains shown)
VH: B2 VH with E52D, K59Y
VL: B1 VL with D93V, M97T
notes: as for B1
In assay [1], B5 yielded a koff of 0.00035 s⁻¹.

B6: masking moiety JS4874 (peptide)
peptide: PWCMQRQDFLRCPQP
B6: the binding result (with 4D11 Fab [4]; in assay [5]) was “binds” in each case.

B7: masking moiety JS4906 (peptide)
peptide: CFLYSCTDVSYWNNT
Turning to B7, the binding result (with 4D11 Fab [4]; in assay [5]) was “binds” each time.

B8: masking moiety JS4879 (peptide)
peptide: QLGLPAYMCTFECLR
For the molecule B8, the binding result (with 4D11 Fab [4]; in assay [5]) was “binds” throughout.

B9: masking moiety JS5872 (peptide)
peptide: GCNIWLNGGDCRGWVDPLQG
In the case of B9, the binding result with 4D11 Fab [6] was “binds”.

B10: masking moiety JS5887 (peptide)
peptide: GCNIWANGGDCRGWIDNIDG
For B10, the binding result in the assay with 4D11 Fab [6] is “binds”.

B11: masking moiety JS5342 (peptide)
peptide: CNIWLVGGDCRGWQG
As for B11, in the assay with 4D11 Fab [6], the binding result is on record as “binds”.

B12: anti-Jagged 32 IgG (antibody, V domains shown)
VH: B2 VH with E53Q, K59Y
VL: DIQMTQSPSSLSASVGDRVTITCRASQSISSYLNWYQQKPGKAPKLLIYAASLQSGVPSRFSGSGSGTDFTLTISSLQPEDFATYYCQQTVVAPLTFGQGTKVEIKR
notes: Fully human IgG made from the variable domains of ScFv Jagged 32; also called anti-Jag 32; antibody 32/32
B12: in assay [7], the “affinity (ELISA)” value is over 30 nM.

B13: anti-Jagged 32 Fab (Fab, V domains shown)
VH: B2 VH with E53Q, K59Y
VL: B12 VL
notes: Fab expressed in E. coli; also called Jag32
In assay [1], B13 came in with a koff of 0.027 s⁻¹.

B14: anti-Jagged 13 Fab (Fab, V domains shown)
VH: B2 VH with E53T, M54Q, W56P, Q57T, K59L, S99T, A100S, A101S
VL: B12 VL with A51S, S75G, T90N, V92A, A93T
notes: Fab expressed in E. coli; also called Jag13
Regarding B14, the koff in assay [1] was determined as 0.022 s⁻¹; in assay [2] it was 0.001 s⁻¹; in assay [3] it was 0.0028 s⁻¹.

B15: masking moiety JS5877 (peptide)
peptide: GCNIWLVGGDCRGWIGDTNG
With B15, the binding result in the assay with 4D11 Fab [6] is on record as “binds”.

B16: masking moiety JS5885 (peptide)
peptide: GCNIWLVGGDCRGWIEDSNG
Take B16: in the assay with 4D11 Fab [6], the binding result is given as “binds”.

B17: masking moiety JS4897 (peptide)
peptide: SCSLWTSGSCLPHSP
For B17, the binding result (in the assay with 4D11 Fab [4]; in assay [5]) was “binds” in each case.

B18: masking moiety JS4896 (peptide)
peptide: CNLWVSGGDCGGLQG
For B18, the binding result (in the assay with 4D11 Fab [4]; in assay [5]) was “binds” throughout.

B19: masking moiety JS4899 (peptide)
peptide: YCLQLPHYMQAMCGR
Take B19: the binding result (in the assay with 4D11 Fab [4]; in assay [5]) was “binds” in each case.
